Source: paper PMC4695125

Columns and labels:
[1] = biological target: RAGE (receptor for advanced glycation end products), endogenous in MDA-MB-231 cells (human (endogenous in MDA-MB-231)) (UniProt Q15109)
[2] = biological target: RAGE (receptor for advanced glycation end products), endogenous in MDA-MB-231 cells (human (endogenous in MDA-MB-231)) (UniProt Q15109); remark: listed apart in the source

UniProt Q15109, sequence (Q15109 23-404): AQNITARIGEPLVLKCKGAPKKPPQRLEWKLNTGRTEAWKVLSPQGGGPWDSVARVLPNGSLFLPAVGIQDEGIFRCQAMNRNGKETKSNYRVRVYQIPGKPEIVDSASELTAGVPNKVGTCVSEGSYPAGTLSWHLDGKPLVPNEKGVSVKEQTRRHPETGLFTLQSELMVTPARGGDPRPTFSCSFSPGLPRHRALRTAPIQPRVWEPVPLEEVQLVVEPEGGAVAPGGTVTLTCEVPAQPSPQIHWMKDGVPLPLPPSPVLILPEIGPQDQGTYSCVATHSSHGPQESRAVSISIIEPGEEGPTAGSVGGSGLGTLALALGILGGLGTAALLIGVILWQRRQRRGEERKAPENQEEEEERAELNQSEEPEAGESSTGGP

Row | Substance | cell viability of ASA-pretreated MDA-MB-231 cells after removal of Ac-APE1/Ref-1 with an anti-APE1/Ref-1 antibody (2 ug) [1] | cytoplasmic histone-associated DNA fragmentation in ASA-pretreated MDA-MB-231 cells after removal of Ac-APE1/Ref-1 with an anti-APE1/Ref-1 antibody (2 ug) (% of the control level) [1] | phosphorylation of p38 MAPK at Tyr182 in MDA-MB-231 cells treated with 5 mM ASA (3 h to 24 h) [2]
1 | recombinant human acetylated APE1/Ref-1 (apurinic apyrimidinic endonuclease 1/redox factor-1) (from UniProt P27695 1-318) (natural protein) | 80% | 33 | 
2 | secreted acetylated APE1/Ref-1 from ASA/TSA-treated MDA-MB-231 cells (from UniProt P27695 1-318) (natural protein) |  |  | 62%
